The results in this text go back to publication doi:10.1101/2024.09.19.614007 (bioRxiv, 2024).

The data set deals with the molecule itself. In words: cryo-EM structure.

B1: Escherichia coli glutamate kinase (enzyme, UniProt P0A7B5 1-367, looked up)
chain: MSDSQTLVVKLGTSVLTGGSRRLNRAHIVELVRQCAQLHAAGHRIVIVTSGAIAAGREHLGYPELPATIASKQLLAAVGQSRLIQLWEQLFSIYGIHVGQMLLTRADMEDRERFLNARDTLRALLDNNIVPVINENDAVATAEIKVGDNDNLSALAAILAGADKLLLLTDQKGLYTADPRSNPQAELIKDVYGIDDALRAIAGDSVSGLGTGGMSTKLQAADVACRAGIDTIIAAGSKPGVIGDVMEGISVGTLFHAQATPLENRKRWIFGAPPAGEITVDEGATAAILERGSSLLPKGIKSVTGNFSRGEVIRICNLEGRDIAHGVSRYNSDALRRIAGHHSQEIDAILGYEYGPVAVHRDDMITR
In general, stoichiometry N refers to the number of molecules, sites or subunits per partner or assembly. With B1, the “stoichiometry N” value stood at 4.
